In US6132976:
Non-standard residues stand in square brackets, D forms with d. No end group written: not given here. Hyp = O=C(O)[C@@H]1C[C@@H](O)CN1

Assays:
[1] = biological target: native helical type II collagen
[2] = biological target: heat denatured type II collagen (HDC)
[3] = biological target: monoclonal antibody COL2-3/4m; assay: inhibition ELISA with COL2-3/4m, HDC on the plate; sample incubated in Tris/CaCl2 without collagenase

α-chymotrypsin (enzyme)
[CB11B] BY INHIBITION ASSAY (µg/ml) of NC + 500 µg/ml CHYMOTRYPSIN [1]: 0 µg/mL

chromatographically purified collagenase form III from Clostridium histolyticum (enzyme)
[α1(II)-CB11B] by immunoassay (µg/ml) after treatment [2]: 0.84 µg/mL

CGKVGPSGA[Hyp]GEDGR[Hyp]GP[Hyp]GPQY [synthetic peptide CB11B]
[α1(II)-CB11B] by immunoassay [3]: 4.44 µg/mL
